# Reference: patent US20230135723A1, “ANTI-CD98 ANTIBODIES AND ANTIBODY DRUG CONJUGATES” (AbbVie Inc., priority 2016, published 2023)
# Substitutions are numbered along the chain they refer to. Marks after values point to notes of the source that are not given here.
# B1: Ab3-CZ (conjugate)
# VH: EVKLVESGGGLVQPGNSLRLSCATSGFTFIDYYMSWVRQSPGKALEWLGFIRNKANGYTTEYSASVKGRFTISRDNSQSILYLQMDTLRAEDSATYYCTRDRPAWFVYWGQGTLVTVSA
# VL: DIVMSQSPSSLAVSVGEKVTMSCKSSQSLLYSSNQKNYLAWYQQKPGQSPKLLIYWASTRESGVPDRFTGSGSGTDFTLTFSSVRAEDLAVYYCQQYYSYPYTFGGGTKLEIK
# B2: ChAb3- CZ-DAR2 (conjugate)
# VH: B1 VH
# VL: B1 VL
# B3: ChAb3-CZ (conjugate)
# VH: B1 VH
# VL: B1 VL
# B4: ChAb5-CZ (conjugate)
# VH: EVKLVESGGGLVQPGGSLRLSCATSGFTFTDYYMTWVRQPPGKALEWLGFIRNKANGYTTEYSASVKGRFTISRDNSLSILYLQMNTLRAEDSATYYCARASYVNSEGWFAYWGQGTLVTVSA
# VL: B1 VL with P46L, F81I, R85K, Q96H, Y102R
# B5: Ab5-CZ (conjugate)
# VH: B4 VH
# VL: B1 VL with P46L, F81I, R85K, Q96H, Y102R
# B6: ChAb3- CZ-DAR4 (conjugate)
# VH: B1 VH
# VL: B1 VL
# B7: ChAb3- CZ-Broad DAR (conjugate)
# VH: B1 VH
# VL: B1 VL
# B8: ChAb11-CZ (conjugate)
# VH: EVQLVESGGGLVQPGRSLKLSCAASGFTFSDYAMAWVRQAPKKGLEWVAGIIYDGRGTYYRDSVKGRFTISRDNAKSTLYLQMDSLRSEDTATYYCARQGDGTYYYWGYFDYWGQGVMVTVSS
# VL: DIVMTQSPSSLAVSAGETVTINCRSSQSLLSSGNQKNYLAWYQQKPGQSPKLLIYWASTRQSGVPDRFIGSGSGTDFTLTISSVQAEDLAIYYCQQYYDTPYTFGAGTKLELK
# B9: ChAb15-CZ (conjugate)
# VH: B8 VH with A33T, G50T, G100S
# VL: B8 VL with R24K, S31F, S82R, T100S
# B10: ChAb8-CZ (conjugate)
# VH: B8 VH with G50S
# VL: B8 VL with R24K, S82N
# B11: ChAb12-CZ (conjugate)
# VH: B8 VH with G50S, Y109S
# VL: B8 VL with R24K, Y93H
# B12: ChAb13-CZ (conjugate)
# VH: QVQLKESGPGLVQPSQTLSLTCTVSGFSLSSYGVIWVRQPPGKGLEWMGIIWANGNTNYNSALKSRLSISRDTSKSQVYLKMNSLQTEDTATYYCARHYYDGTHYYGYFDYWGQGVMVTVSS
# VL: DTVMTQTPSSQAVSAGEKVTMSCKSSQSLLYSENKKKYLAWYQQKPGQSPKLLIYWASTRESGVPDRFIGSGSGTDFTLTISSVQAEDLAVYYCQQYYNFPYTFGAGTKLELK
# What was measured:
# [1] = test system: NCI-H146 (human small cell lung cancer) xenograft; assay: NCI-H146 xenograft tumor growth inhibition; format: in vivo, SCID-bg mice; details: for Growth Inhibition TGImax (%): 10 mg/kg/day IP QDx1; for Response Frequency CR (%): 10 mg/kg/day IP QDx1, complete responders; for Response Frequency OR (%): 10 mg/kg/day IP QDx1, overall responders; for Response Frequency PR (%): 10 mg/kg/day IP QDx1, partial responders; for Growth Inhibition TGD (%): 10 mg/kg/day IP QDx1, tumor growth delay to 1 cm^3
# Experimental: The in vivo efficacy of anti-CD98 hybridoma mAb conjugates were tested using Ab3-CZ and Ab5-CZ as examples in NCI-H146 (human small cell lung cancer) xenograft model. The two anti-CD98 hybridoma mAb, Ab3-CZ and Ab5-CZ, were conjugated to the Bcl-xL inhibitor synthon CZ according to Method A. NCI-H146 was obtained from the American Type Culture Collection (ATCC, Manassas, Va.). The cells were cultured as monolayers in RPMI-1640 culture media (Invitrogen, Carlsbad, Calif.) that was supplemented with 10% Fetal Bovine Serum (FBS, Hyclone, Logan, Utah). To generate xenografts, 5×10^6 (NCI-H146) viable cells were inoculated subcutaneously into the right flank of immune deficient female SCID-bg mice (Charles River Laboratories, Wilmington, Mass.). The injection volume was 0.2 mL and composed of Matrigel (BD, Franklin Lakes, N.J.). Tumors were size matched at approximately 212 mm^3. Antibodies and conjugates were formulated in phosphate buffered saline, pH 7.2 and injected intraperitoneally. […] Therapy began within 24 hours after size matching of the tumors. Mice weighed approximately 21 g at the onset of therapy. Tumor volume was estimated two to three times weekly. Measurements of the length (L) and width (W) of the tumor were taken via electronic caliper and the volume was calculated according to the following equation: V=L×W^2/2. Mice were euthanized when tumor volume reached 3,000 mm^3 or skin ulcerations occurred. Eight mice were housed per cage. Food and water were available ad libitum. Mice were acclimated to the animal facilities for a period of at least one week prior to commencement of experiments. Animals were tested in the light phase of a 12-hour light: 12-hour dark schedule (lights on at 06:00 hours). Anti-CD98 conjugates (10 mg/kg) were administered as a single dose (QD×1) intraperitoneally. A human IgG control antibody (MSL109, a humanized IgG1 antibody that binds to cytomegalovirus (CMV) glycoprotein H) was used as a negative control agent.
# To refer to efficacy of therapeutic agents, parameters of amplitude (TGImax), durability (TGD) and response frequency (CR, PR, OR) of therapeutic response are used. The efficacy of inhibition of NCI-H146 xenografts growth with CD98-targeted ADCs is illustrated by Table 6, below. In the tables, to refer to efficacy, parameters of amplitude (TGImax) and durability (TGD) of therapeutic response are used. TGImax is the maximum tumor growth inhibition during the experiment. Tumor growth inhibition is calculated by 100*(1−Tv/Cv) where Tv and Cv are the mean tumor volumes of the treated and control groups, respectively. TGD or tumor growth delay is the extended time of a treated tumor needed to reach a volume of 1 cm^3 relative to the control group. TGD is calculated by 100*(Tt/Ct−1) where Tt and Cr are the median time periods to reach 1 cm^3 of the treated and control groups, respectively. Distribution of the response amplitude in a specific group is given by the frequency of complete responders (CR), partial responders (PR), and overall responders (OR). CR is the percentage of mice within a group with a tumor burden of 25 mm^3 for at least three measurements. PR is the percentage of mice within a group with a tumor burden larger than 25 mm^3 but less than one-half of the volume at onset of treatment for at least three measurements. OR is the sum of CR and PR.
# [2] = Percent aggregates of ADC by size exclusion chromatography; format: physicochemical; details: chAb3-CZ DAR2, DAR4 and broad DAR species (Table 12)
# Text: Procedures for DAR and percent aggregate determination are described above in Example 5.
# [3] = test system: EBC-1 (human lung squamous cell carcinoma) xenograft; assay: EBC-1 xenograft tumor growth inhibition; format: in vivo; details: 10 mg/kg/day IP QDx1, SCID-bg mice
Molecule,Growth Inhibition TGImax (%) [1],Response Frequency CR (%) [1] [%],Response Frequency OR (%) [1] [%],Response Frequency PR (%) [1] [%],Growth Inhibition TGD (%) [1],% Aggregates by SEC [2] [%],Growth Inhibition TGD (%) [3],Growth Inhibition TGImax (%) [3],Response Frequency CR (%) [3] [%],Response Frequency OR (%) [3] [%],Response Frequency PR (%) [3] [%]
"MSL109: ""a humanized IgG1 antibody that binds to cytomegalovirus (CMV) glycoprotein H"", ""used as a negative control agent"" [reference compound]",0%,0,0,0,0%,–,–,–,–,–,–
B1,79* %,0,50,50,81* %,–,–,–,–,–,–
B2,–,–,–,–,–,0.5,32* %,55* %,0,0,0
B3,–,–,–,–,–,–,37* %,54* %,0,0,0
B4,–,–,–,–,–,–,61* %,70* %,0,0,0
B5,76* %,0,0,0,76* %,–,–,–,–,–,–
B6,–,–,–,–,–,13.8,–,–,–,–,–
B7,–,–,–,–,–,12.2,–,–,–,–,–
B8,–,–,–,–,–,–,37* %,55* %,0,0,0
B9,–,–,–,–,–,–,74* %,70* %,0,0,0
B10,–,–,–,–,–,–,42* %,56* %,0,0,0
B11,–,–,–,–,–,–,74* %,76* %,0,25,25
B12,–,–,–,–,–,–,47* %,61* %,0,0,0
